Measurements taken from publication PMC6531784, “Discovering metabolic disease gene interactions by correlated effects on cellular morphology” (Molecular Metabolism, 2019).
Several values for one entry are separate records, joined by “and”; a condition that tells them apart may be missing. Equal values may be shown once.

T1: seipin-Myc, Q96G97
T1 chain: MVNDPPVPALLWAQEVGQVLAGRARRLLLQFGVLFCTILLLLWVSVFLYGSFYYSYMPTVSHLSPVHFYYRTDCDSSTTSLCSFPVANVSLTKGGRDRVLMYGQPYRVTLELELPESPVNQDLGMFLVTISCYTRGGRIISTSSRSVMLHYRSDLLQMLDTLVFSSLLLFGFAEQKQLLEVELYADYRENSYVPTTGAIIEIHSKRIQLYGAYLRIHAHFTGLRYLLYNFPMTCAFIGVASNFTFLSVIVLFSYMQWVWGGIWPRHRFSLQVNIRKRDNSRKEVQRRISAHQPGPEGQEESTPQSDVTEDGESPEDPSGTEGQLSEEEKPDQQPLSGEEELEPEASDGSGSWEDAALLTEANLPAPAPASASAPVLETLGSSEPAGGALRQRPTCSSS

T2: seipin-Myc (UniProt Q96G97 1-398)
T2 construct: seipin (product of BSCL2) in the pcDNA3.1 MycHis vector; also called seipin dodecamers; not shown: Myc, C-terminal, kept; copies: 12
T2 sequence (looked up): T1 chain

B1: seipin-Myc, Q96G97 1-398 (natural protein)
chain: T1 chain
B2: FLAG-perilipin (in tsA 201 cells) (natural protein, UniProt O60240 1-522, looked up)
chain: MAVNKGLTLLDGDLPEQENVLQRVLQLPVVSGTCECFQKTYTSTKEAHPLVASVCNAYEKGVQSASSLAAWSMEPVVRRLSTQFTAANELACRGLDHLEEKIPALQYPPEKIASELKDTISTRLRSARNSISVPIASTSDKVLGAALAGCELAWGVARDTAEFAANTRAGRLASGGADLALGSIEKVVEYLLPPDKEESAPAPGHQQAQKSPKAKPSLLSRVGALTNTLSRYTVQTMARALEQGHTVAMWIPGVVPLSSLAQWGASVAMQAVSRRRSEVRVPWLHSLAAAQEEDHEDQTDTEGEDTEEEEELETEENKFSEVAALPGPRGLLGGVAHTLQKTLQTTISAVTWAPAAVLGMAGRVLHLTPAPAVSSTKGRAMSLSDALKGVTDNVVDTVVHYVPLPRLSLMEPESEFRDIDNPPAEVERREAERRASGAPSAGPEPAPRLAQPRRSLRSAQSPGAPPGPGLEDEVATPAAPRPGFPAVPREKPKRRVSDSFFRPSVMEPILGRTHYSQLRKKS
notes: perilipin (product of PLIN1) in the pCMV3xFLAG vector; Same construct as m7, other host cells

How the values were obtained:
seipin-Myc, Q96G97 = molecular target: T1, seipin-Myc, Q96G97; test: atomic force microscopy; proteins co-expressed in tsA 201 cells, isolated by anti-Myc immunoaffinity chromatography, imaged in tapping mode in air; particle volumes from heights and radii; details: remark: other sources report otherwise
seipin-Myc = molecular target: T2, seipin-Myc; test: as above; details: partners not purified

Binder	stoichiometry N (seipin-Myc, Q96G97)	stoichiometry N (seipin-Myc)
B1	12	–
B2	–	1 perilipin per seipin dodecamer and 2 perilipin per seipin dodecamer
